According to patent US20100183617A1 (UNIVERSITY OF VIRGINIA PATENT FOUNDATION, published 2010):

T1: purified recombinant mouse SAS1R (mature, 414 residues), His-tagged, expressed in E. coli (mouse, UniProt Q6HA09 24-435)
T1 construct: Purified from the insoluble fraction in 8 M urea on a Ni column; The preparation also holds a ˜25 kD C-terminal fragment; ZEP is the earlier name of SAS1R; also called rSAS1R; rec SAS1R; not shown: twenty vector-encoded (pET-28b(+)) amino acids including a six histidine tag at the N-terminus; ten vector-encoded amino acids including a six histidine tag at the C-terminus
T1 sequence: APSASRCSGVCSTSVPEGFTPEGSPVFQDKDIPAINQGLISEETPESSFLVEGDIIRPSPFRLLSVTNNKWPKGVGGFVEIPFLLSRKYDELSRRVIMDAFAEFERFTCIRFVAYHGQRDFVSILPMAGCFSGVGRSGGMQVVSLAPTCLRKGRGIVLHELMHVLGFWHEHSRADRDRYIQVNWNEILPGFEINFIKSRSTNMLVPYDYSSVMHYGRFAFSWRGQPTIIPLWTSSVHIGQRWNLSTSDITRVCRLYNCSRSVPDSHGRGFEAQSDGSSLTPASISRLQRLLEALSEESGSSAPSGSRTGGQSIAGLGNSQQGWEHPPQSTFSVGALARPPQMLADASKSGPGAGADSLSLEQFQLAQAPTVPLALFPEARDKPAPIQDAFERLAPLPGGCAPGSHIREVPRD

T2: in vitro translated 35S-methionine labeled full length SAS1R with N-terminal c-Myc tag (mouse, UniProt Q6HA09 24-435, 35S-methionine labeled)
T2 construct: ˜50 kD; also called SAS1R full length (F); F-SAS1R full length
T2 sequence: T1 sequence

B1: in vitro translated 35S-methionine labeled SAS1R N-terminus (121 residues) with N-terminal c-Myc tag (receptor, not shown: small tags and cut ends)
chain: MGAPSASRCSGVCSTSVPEGFTPEGSPVFQDKDIPAINQGLISEETPESSFLVEGDIIRPSPFRLLSVTNNKWPKGVGGFVEIPFLLSRKYDELSRRVIMDAFAEFERFTCIRFVAYHGQR
modifications: 35S-methionine labeled
notes: ˜21 kD; also called N-terminus (N); N-SAS1R N-terminus
B2: native mouse SLLP1 of sperm (acrosomal, ˜15 kDa form) (ligand)
chain: KVFSRCELAKEMHDFGLDGYRGYNLADWVCLAYYTSGFNTNAVDHEADGSTNNGIFQISSRRWCRTLASNGPNLCRIYCTDLLNNDLKDSIVCAMKIVQEPLGLGYWEAWRHHCQGRDLSDWVDGCDF
notes: Only a ˜15 kDa form is found in sperm extracts; The predicted processed form is residues 94-221 (cleavage between A93 and K94 is only predicted); On sperm or in sperm extracts; also called native SLLP1; native mSLLP1
B3: in vitro translated 35S-methionine labeled mature mouse SLLP1 (128 residues) with N-terminal HA tag (ligand, not shown: small tags and cut ends)
chain: B2 chain
modifications: 35S-methionine labeled
notes: ˜16 kD; also called SLLP1 (S); S-SLLP1
B4: purified soluble recombinant mouse SLLP1 (mature form, residues 94-221), His-tagged, expressed in E. coli (ligand)
chain: B2 chain
notes: also called rSLLP1; rec SLLP1; not shown: two vector-encoded residues at the N-terminus and eight at the C-terminus including the six-histidine tag (pET28b+)
B5: human Lamin C (negative control construct of the two-hybrid system) (other)
chain: SEEVVSREVSGIKAAYEAELGDARKTLDSVAKERARLQLELSKVREEFKELKARNTKKEGDLIAAQARLKDLEALLNSKEAALSTALSEKRTLEGELHDLRGQVAKLEAALGEAKKQLQDEMLRRVDAENRLQTMKEELDFQKNIYSEELRETKRRHETRLVEID

Experiments:
[1] = biological target: B3; test: co-IP of in vitro translated 35S-labeled proteins, anti-Myc beads
Protocol: (§1) High affinity anti-c-Myc and anti-HA monoclonal antibodies coupled to agarose beads were employed to immunoprecipitate proteins (IP) and their radiolabeled putative interacting partners (Co-IP) using the Profound c-Myc/HA Tag IP/Co-IP system (Pierce, Ill.). For Co-IP reactions, the specific TNT products, ranging from 7-23 μl were gently mixed and kept at 4° C. for 1 h. Simultaneously the anti-c-Myc and anti-HA antibody beads were incubated with 5% milk in PBST (phosphate buffer saline with 0.05% Tween 20) for 1 h at 4° C. in Handy spin columns (Pierce, Ill.) with gentle end-over-end mixing to prevent loss of beads during the subsequent steps. Following blocking, the antibody beads were incubated with IP or Co-IP samples overnight at 4° C. in Handee spin columns with gentle end-over-end mixing. The beads were then precipitated and washed 3 times in 500 μl of PBST at 4000×g for 10 sec with 3 gentle mixes during each wash. The IP and co-IP products were then recovered from the beads in 23 μl of 2× non-reducing sample buffer, heated at 99° C. for 5 min, centrifuged, and mixed with 2 μl of β-mercaptoethanol, and 20 μl of this mixture was loaded per lane for SDS-PAGE analysis using Criterion gels (Bio-Rad, CA). After electrophoresis, the gels were fixed, air dried, exposed to phosphor screens, and imaged as described above for analysis of TNT products. […]

[2] = biological target: T1, purified recombinant mouse SAS1R …; test: co-localization by immunofluorescence, capacitated sperm incubated with rSAS1R
[3] = biological target: T2, in vitro translated 35S-methionine …; test: co-IP of in vitro translated 35S-labeled proteins, anti-Myc beads
Protocol: as §1

[4] = biological target: T1, purified recombinant mouse SAS1R …; test: far-western overlay
Protocol: Before protein overlay, the strips were incubated with blocking buffer for 1 h. […] After washing in PBST (×4), the strips were probed with goat anti-mouse HRP secondary antibody in blocking buffer for 1 h, washed in PBST (×4) followed by PBS (×1), and developed with TMB.

[5] = biological target: T3, SV40 large T-antigen (control construct of the two-hybrid system; HA-tagged when translated in vitro) (SV40, UniProt P03070 86-708); test: yeast two-hybrid, high stringency plate
T3 construct: Control used both in the Y2H assay and in the co-IP (HA tag); also called T-antigen (T)
T3 sequence (P03070 86-708 limits assumed): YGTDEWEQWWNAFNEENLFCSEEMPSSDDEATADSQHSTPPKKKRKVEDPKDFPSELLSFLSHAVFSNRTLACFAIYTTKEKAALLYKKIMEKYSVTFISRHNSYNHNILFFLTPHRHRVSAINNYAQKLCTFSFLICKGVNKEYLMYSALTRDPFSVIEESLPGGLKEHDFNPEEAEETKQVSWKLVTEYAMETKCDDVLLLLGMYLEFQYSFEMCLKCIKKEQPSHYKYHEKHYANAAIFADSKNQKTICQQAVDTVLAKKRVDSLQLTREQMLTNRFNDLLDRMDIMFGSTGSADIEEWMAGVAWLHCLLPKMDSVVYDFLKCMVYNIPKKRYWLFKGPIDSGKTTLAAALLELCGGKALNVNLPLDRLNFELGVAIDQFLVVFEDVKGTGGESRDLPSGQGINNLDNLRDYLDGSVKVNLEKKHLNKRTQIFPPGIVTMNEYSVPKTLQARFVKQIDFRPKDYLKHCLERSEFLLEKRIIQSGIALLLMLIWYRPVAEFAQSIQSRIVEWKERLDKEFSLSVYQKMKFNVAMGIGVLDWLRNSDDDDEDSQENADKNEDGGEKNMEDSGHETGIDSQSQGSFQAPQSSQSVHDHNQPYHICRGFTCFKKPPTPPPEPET

## B1
[1]
  binding result: binds

## B2
[2]
  binding result: binds

## B3
[3]
  binding result: binds

## B4
[4]
  binding result: binds

## B5
[5]
  binding result: no binding
